Assay results published in patent publication US20220251176A1 (GREEN CROSS, published 2022).

B1: recombinant human CD3 (receptor)
chain: DGNEEMGGITQTPYKVSISGTTVILTCPQYPGSEILWQHNDKNIGGDEDDKNIGSDEDHLSLKEFSELEQSGYYVCYPRGSKPEDANFYLYLRARVCENCMEMD
B2: anti-MSLN/anti-CD3 bispecific antibody HMI323/HMI323-A15 (bispecific antibody, human IgG1, kappa, lambda, L234A L235A)
chain 1: DIQMTQSPSSLSASVGDRVTITCRASQDVSTAVAWYQQKPGKAPKLLIYSASYRYPGVPSRFSGSGSGTDFTLTISSLQPEDFATYYCQQHYSTPWTFGGGTKLEIKRTVAAPSVFIFPPSDEQLKSGTASVVCLLNNFYPREAKVQWKVDNALQSGNSQESVTEQDSKDSTYSLSSTLTLSKADYEKHKVYACEVTHQGLSSPVTKSFNRGECSGGGSGGGSEGGGSEGGGSEGGGSEGGGSGGGSGEVQLVQSGAEVKKPGTSVKVSCKASGYSFTSYFIQWVRQAPGQGLEWIGWIFPGSGNTKYSQKFQGRVTITRDTSTSTAYMELSSLRSEDTAVYYCARSGGYQYYFDYWGQGTLVTVSSASTKGPSVFPLAPSSKSTSGGTAALGCLVKDYFPEPVTVSWNSGALTSGVHTFPAVLQSSGLYSLSSVVTVPSSSLGTQTYICNVNHKPSNTKVDKKVGGGGSGGGGSGGGGSQAVVTQEPSLTVSPGGTVTLTCRSSTGAVTTSNYANWVQQKPGQAPRGLIGGTNKRAPWTPARFSGSLLGGKAALTLSGAQPEDEAEYYCALWYSNLWVFGGGTKLTVLGQPKANPTVTLFPPSSEELQANKATLVCLISDFYPGAVTVAWKADGSPVKAGVETTKPSKQSNNKYAASSYLSLTPEQWKSHRSYSCQVTHEGSTVEKTVAPTECSGGGSGGGSEGGGSEGGGSEGGGSEGGGSGGGSGEVQLVESGGGLVQPGGSLKLSCAASGFTFNTYAMNWVRQASGKGLEWVGRIRSKYNNYATYYADSVKDRFTISRDDSKNTAYLQMNSLKTEDTAVYYCVRHGNFGNSYVSWFAYWGQGTLVTVSSASTKGPSVFPLAPSSKSTSGGTAALGCLVKDYFPEPVTVSWNSGALTSGVHTFPAVLQSSGLYSLSSVVTVPSSSLGTQTYICNVNHKPSNTKVDKKVEPKSCDKTHTCPPCPAPEAAGGPSVFLFPPKPKDTLMISRTPEVTCVVVDVSHEDPEVKFNWYVDGVEVHNAKTKPREEQYNSTYRVVSVLTVLHQDWLNGKEYKCKVSNKALPAPIEKTISKAKGQPREPRVYTLPPCRDELTKNQVSLTCLVKGFYPSDIAVEWESNGQPENNYKTTPPVLVSDGSFTLYSKLTVDKSRWQQGNVFSCSVMHEALHNHYTQKSLSLSPG
chain 2: DIQMTQSPSSLSASVGDRVTITCRASQDVSTAVAWYQQKPGKAPKLLIYSASYRYPGVPSRFSGSGSGTDFTLTISSLQPEDFATYYCQQHYSTPWTFGGGTKLEIKRTVAAPSVFIFPPSDEQLKSGTASVVCLLNNFYPREAKVQWKVDNALQSGNSQESVTEQDSKDSTYSLSSTLTLSKADYEKHKVYACEVTHQGLSSPVTKSFNRGECSGGGSGGGSEGGGSEGGGSEGGGSEGGGSGGGSGEVQLVQSGAEVKKPGTSVKVSCKASGYSFTSYFIQWVRQAPGQGLEWIGWIFPGSGNTKYSQKFQGRVTITRDTSTSTAYMELSSLRSEDTAVYYCARSGGYQYYFDYWGQGTLVTVSSASTKGPSVFPLAPSSKSTSGGTAALGCLVKDYFPEPVTVSWNSGALTSGVHTFPAVLQSSGLYSLSSVVTVPSSSLGTQTYICNVNHKPSNTKVDKKVEPKSCDKTHTCPPCPAPEAAGGPSVFLFPPKPKDTLMISRTPEVTCVVVDVSHEDPEVKFNWYVDGVEVHNAKTKPREEQYNSTYRVVSVLTVLHQDWLNGKEYKCKVSNKALPAPIEKTISKAKGQPREPQVCTLPPSRDELTENQVSLTCLVKGFYPSDIAVEWESNGQPENNYKTTPPVLDSDGSFFLYSWLTVDKSRWQQGNVFSCSVMHEALHNHYTQKSLSLSPG
notes: Knob-into-hole heterodimer of two single chains, 2+1 IgG format

Assays:
[1] = target: T1, anti-EGFR/anti-MSLN/anti-CD3 trispecific antibody Cetuximab/HMI323-A15; assay: BLI (Octet), antigen immobilised on APS sensor, antibody 6.25-100 nM
T1 construct: Trispecific antibody: knob-into-hole heterodimer of two single chains, 2+1 IgG format

[2] = target: T2, MSLN on H226 and AsPC-1 cancer cell lines (UniProt Q13421 296-598); assay: flow cytometry on AsPC-1 cells (overexpress MSLN and EGFR), PE anti-human IgG
T2 construct: whole, on cells; The same cells also overexpress EGFR; also called MSLN-expressing tumor cells; MSLN+ tumor cells
T2 sequence (Q13421 other isoform, or with tags, fused parts or gaps limits assumed): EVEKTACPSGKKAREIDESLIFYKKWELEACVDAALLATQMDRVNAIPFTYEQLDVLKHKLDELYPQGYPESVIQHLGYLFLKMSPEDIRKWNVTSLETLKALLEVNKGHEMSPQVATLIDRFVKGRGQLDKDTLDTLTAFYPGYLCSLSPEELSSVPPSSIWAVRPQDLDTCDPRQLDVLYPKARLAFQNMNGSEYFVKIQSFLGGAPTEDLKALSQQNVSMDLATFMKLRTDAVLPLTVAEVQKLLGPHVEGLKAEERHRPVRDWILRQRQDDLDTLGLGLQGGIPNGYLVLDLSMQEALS
Method: (§1) Then, light was blocked for one and a half hours and incubation was performed at 4° C. Subsequently, 200 μl of FACS buffer was added thereto. Centrifugation was performed at 2,000 rpm for 3 minutes at 4° C., and then the supernatant was removed.
(§2) Then, light was blocked for 30 minutes and incubation was performed at 4° C. Subsequently, 200 μl of FACS buffer was added thereto, and centrifugation was performed at 2,000 rpm for 3 minutes at 4° C.; and then the supernatant was removed to obtain a sample.
(§3) 200 μl of BD CYTOFIX™ was added to the sample so that the cells were suspended, and analysis was performed by BD LSR FORTESSA™.

[3] = target: T2, MSLN on H226 and AsPC-1 cancer cell …; assay: flow cytometry on H226 cells (overexpress MSLN and EGFR), PE anti-human IgG
Method: as §1, §2, §3

[4] = target: T3, CD3 on Jurkat E6-1 T cell line (UniProt P07766 23-207); assay: flow cytometry on Jurkat E6-1 cells (express CD3), PE anti-human IgG
T3 construct: whole, on cells; On the cells CD3 is the whole complex
Method: as §1, §2, §3

[5] = target: T2, MSLN on H226 and AsPC-1 cancer cell …; assay: cell-based or functional assay
recombinant human CD3 = target: B1; assay: BLI (Octet), antigen immobilised on APS sensor, antibody 6.25-100 nM
recombinant human MSLN = target: T4, recombinant human MSLN (human, UniProt Q13421 296-580, limits assumed); assay: as above
T4 construct: Immobilised on an APS sensor in the Octet assay; also called mesothelin
T4 sequence (Q13421 other isoform, or with tags, fused parts or gaps limits assumed): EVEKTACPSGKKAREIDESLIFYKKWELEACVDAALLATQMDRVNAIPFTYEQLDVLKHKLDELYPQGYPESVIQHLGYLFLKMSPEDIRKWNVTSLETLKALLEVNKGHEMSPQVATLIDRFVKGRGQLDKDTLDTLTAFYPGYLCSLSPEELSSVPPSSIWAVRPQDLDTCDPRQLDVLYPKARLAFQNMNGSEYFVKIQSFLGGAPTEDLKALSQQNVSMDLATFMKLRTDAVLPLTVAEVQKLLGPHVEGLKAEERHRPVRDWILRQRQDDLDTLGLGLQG

Row | Kd [1] [nM] | koff [1] [s⁻¹] | kon [1] [M⁻¹ s⁻¹] | EC50 [2] [nM] | EC50 [3] [nM] | EC50 [4] [nM] | Kd (recombinant human CD3) [nM] | koff (recombinant human CD3) [s⁻¹] | kon (recombinant human CD3) [M⁻¹ s⁻¹] | Kd (recombinant human MSLN) [nM] | koff (recombinant human MSLN) [s⁻¹] | kon (recombinant human MSLN) [M⁻¹ s⁻¹] | Binder | IC50 of PBMC-mediated cell killing; AsPC-1; PBMC:target cell 10:1; 24 hr [5] [pM] | IC50 of PBMC-mediated cell killing; AsPC-1; PBMC:target cell 10:1; 48 hr [5] [pM] | IC50 of PBMC-mediated cell killing; AsPC-1; PBMC:target cell 20:1; 48 hr [5] [pM] | IC50 of PBMC-mediated cell killing; H226; PBMC:target cell 10:1; 24 hr [5] [pM] | IC50 of PBMC-mediated cell killing; H226; PBMC:target cell 10:1; 48 hr [5] [pM] | IC50 of PBMC-mediated cell killing; H226; PBMC:target cell 20:1; 48 hr [5] [pM]
1 | 13.5 | 0.00625 | 463000 | – | – | – | – | – | – | – | – | – | B1 | – | – | – | – | – | –
2 | – | – | – | 4.7 | 6.2 | 58 | 52.6 | 0.0242 | 461000 | 7.79 | 0.000774 | 99400 | B2 | 406 | 144 | 30.4 | 84.4 | 50.3 | 15.3
